± gives the uncertainty stated by the source.
B1: Transcriptional repressor p66-beta, residues 415 to 455; numbered along this chain, Q8WXI9 (parent)
chain: VEPFVCAQCRTDFTPHWKQEKNGKILCEQCMTSNQKKALKA

Variants of: B1
Test: abundance fitness (aPCA) (normalised: wild type 0, dead -1); higher = more abundant; growth selection in yeast, the domain comes from the species named
Settings: Homo sapiens

Point of comparison: T14M, abundance fitness -0.527 ± 0.25. Against it:
- V5D — within error, -0.568 ± 0.27
- V5K — higher, 0.027 ± 0.11
- V5S — higher, 0.136 ± 0.094
- V5R — higher, -0.027 ± 0.067
- V5C — within error, -0.351 ± 0.23
- V5P — within error, -0.29 ± 0.12
- V5M — higher, -0.03 ± 0.17
- V5A — higher, 0.116 ± 0.095
- V5T — higher, 0.041 ± 0.1
- V5G — within error, -0.302 ± 0.075
- V5L — higher, 0.18 ± 0.068
- V5F — within error, -0.288 ± 0.2
- V5W — within error, -0.405 ± 0.13
- V5I — higher, -0.126 ± 0.13
- V5E — within error, -0.226 ± 0.089
- V5Q — higher, 0.14 ± 0.084
- R10K — higher, 0.409 ± 0.087
- R10A — higher, 0.904 ± 0.067
- R10L — higher, 0.585 ± 0.064
- R10E — higher, 0.27 ± 0.13
- R10F — higher, 0.608 ± 0.1
- R10I — higher, 0.521 ± 0.14
- R10S — higher, 0.717 ± 0.059
- R10C — higher, 0.957 ± 0.068
- R10N — higher, -0.022 ± 0.22
- R10Y — higher, 0.518 ± 0.082
- R10D — higher, 0.014 ± 0.092
- R10W — higher, 0.338 ± 0.068
- R10H — higher, 1.1 ± 0.083
- R10P — higher, 0.352 ± 0.093
- R10V — higher, 0.703 ± 0.058
- C6S — within error, -0.911 ± 0.23
- C6Y — within error, -0.23 ± 0.39
- C6W — within error, -0.955 ± 0.2
- C6D — within error, -0.718 ± 0.17
- C6V — lower, -1.08 ± 0.17
- C6R — lower, -1 ± 0.15
- C6A — within error, -0.771 ± 0.19
- C6N — within error, -0.317 ± 0.28
- C6G — lower, -1.02 ± 0.14
- C6K — within error, -0.368 ± 0.29
- C6L — within error, -0.939 ± 0.24
- C6E — lower, -1.02 ± 0.21
- C6T — higher, 0.403 ± 0.15
- C6M — lower, -1.12 ± 0.22
- C6F — within error, -0.944 ± 0.43
- K18F — within error, -0.312 ± 0.39
- K18H — higher, 0.155 ± 0.38
- K18S — higher, 0.021 ± 0.092
- K18R — higher, -0.072 ± 0.078
- K18M — higher, -0.011 ± 0.19
- K18L — within error, -0.217 ± 0.069
- K18C — higher, 0.01 ± 0.078
- K18E — higher, 0.098 ± 0.078
- K18D — within error, -0.099 ± 0.24
- K18Y — within error, -0.447 ± 0.34
- K18P — higher, -0.165 ± 0.11
- K18W — higher, -0.195 ± 0.073
- K18Q — higher, -0.105 ± 0.11
- K18I — within error, -0.295 ± 0.38
- K18T — within error, -0.164 ± 0.17
- K18V — higher, 0.011 ± 0.06
- K18G — higher, 0.098 ± 0.071
- T14D — within error, -0.347 ± 0.27
- T14L — higher, -0.035 ± 0.078
- T14E — higher, -0.041 ± 0.11
- T14G — within error, -0.395 ± 0.086
- T14R — within error, -0.237 ± 0.068
- T14Y — higher, 0.264 ± 0.2
- T14P — higher, 0.137 ± 0.078
- T14A — higher, -0.185 ± 0.086
- T14F — higher, -0.056 ± 0.21
- T14Q — higher, -0.078 ± 0.12
- T14I — within error, -0.298 ± 0.13
- T14C — within error, -0.145 ± 0.16
- T14V — higher, 0.144 ± 0.067
- T14S — higher, -0.042 ± 0.12
- T14H — higher, -0.039 ± 0.14
- T14W — within error, -0.521 ± 0.094
- T14K — higher, -0.014 ± 0.072
- Q8G — higher, 0.934 ± 0.048
- Q8H — higher, 0.58 ± 0.14
- Q8L — higher, 0.723 ± 0.06
- Q8Y — higher, 0.428 ± 0.14
- Q8W — higher, 0.557 ± 0.057
- Q8N — higher, 0.741 ± 0.14
- Q8C — higher, 0.506 ± 0.095
- Q8R — higher, 0.843 ± 0.055
- Q8V — higher, 0.896 ± 0.052
- Q8M — higher, 0.657 ± 0.12
- Q8P — within error, -0.393 ± 0.12
- Q8S — higher, 0.839 ± 0.061
- Q8K — higher, 0.788 ± 0.075
- Q8A — higher, 0.821 ± 0.065
- Q8E — higher, 0.849 ± 0.06
- Q8T — higher, 0.864 ± 0.075
- V1D — higher, -0.002 ± 0.12
- V1K — higher, 0.195 ± 0.21
- V1E — higher, 0.067 ± 0.13
- V1I — within error, -0.288 ± 0.24
- V1M — higher, 0.212 ± 0.13
- V1A — within error, -0.29 ± 0.086
- V1N — within error, -0.178 ± 0.3
- V1T — within error, -0.187 ± 0.36
- V1G — higher, 0.024 ± 0.093
- V1R — higher, -0.054 ± 0.12
- V1F — within error, -0.17 ± 0.21
- V1S — within error, -0.444 ± 0.2
- A7D — higher, 0.27 ± 0.096
- A7N — higher, 0.121 ± 0.13
- A7I — higher, 0.078 ± 0.11
- A7V — higher, 0.363 ± 0.054
- A7G — higher, 0.368 ± 0.053
- A7W — within error, -0.223 ± 0.083
- A7H — higher, 0.534 ± 0.28
- A7E — higher, 0.188 ± 0.063
- A7T — higher, 0.208 ± 0.07
- A7Y — within error, -0.309 ± 0.12
- A7P — higher, -0.091 ± 0.1
- A7L — higher, -0.158 ± 0.061
- A7M — higher, -0.165 ± 0.095
- A7F — higher, 0.068 ± 0.11
- A7R — higher, 0.075 ± 0.064
- A7S — higher, 0.523 ± 0.087
- A7C — higher, 0.325 ± 0.089
- A7K — higher, 0.09 ± 0.11
- G23A — higher, 0.148 ± 0.062
- P3C — higher, 0.488 ± 0.42
- P3I — higher, 0.284 ± 0.49
- P3T — higher, -0.066 ± 0.19
- P3V — higher, -0.057 ± 0.074
- P3E — higher, 0.213 ± 0.098
- P3S — higher, 0.398 ± 0.077
- P3D — within error, -0.521 ± 0.27
- P3G — higher, 0.22 ± 0.053
- P3L — higher, 0.095 ± 0.085
- P3R — higher, 0.121 ± 0.062
- P3H — higher, 0.215 ± 0.11
- P3K — within error, -0.118 ± 0.16
- P3A — higher, 0.313 ± 0.087
- P3W — within error, -0.243 ± 0.2
- C9Y — within error, -0.937 ± 0.43
- C9R — within error, -0.436 ± 0.09
- C9G — within error, -0.262 ± 0.062
- C9N — within error, -0.717 ± 0.41
- C9P — higher, -0.049 ± 0.15
- C9H — higher, 0.389 ± 0.1
- C9Q — higher, -0.09 ± 0.097
- C9W — lower, -0.999 ± 0.17
- C9M — within error, -0.716 ± 0.3
- C9E — within error, -0.235 ± 0.11
- C9K — within error, -0.148 ± 0.13
- C9A — within error, -0.417 ± 0.079
- C9D — within error, -0.271 ± 0.17
- C9T — within error, -0.203 ± 0.12
- C9S — within error, -0.733 ± 0.27
- F4T — higher, -0.126 ± 0.085
- F4I — higher, 0.125 ± 0.39
- F4K — within error, -0.137 ± 0.17
- F4E — higher, -0.134 ± 0.091
- F4G — higher, 0.044 ± 0.052
- F4R — higher, -0.19 ± 0.062
- F4S — higher, -0.169 ± 0.073
- F4A — higher, 0.101 ± 0.065
- F4M — higher, 0.64 ± 0.073
- F4C — higher, 0.659 ± 0.067
